Tests used:
[1] = In vitro kinetics (Km, Vmax), acceptor substrate lactose; assay type: biochemical; settings: 30° C., pH7.5, protein extract
Procedure: To rank the best performing sialyltransferases, their Km values for donor and acceptor substrates were determined in vitro. Escherichia coli BL21(DE3) strain #287 was used for overproduction of the enzymes. Cells were incubated in 100 ml 2YT medium in shaking flasks supplemented with 100 μg m^−1 ampicillin at 30° C. until an OD600 of 0.3 was reached. Then, 0.3 mM IPTG was added and the incubation was continued for 12 to 16 hours. Cells were harvested by centrifugation and mechanically disrupted in a defined volume of 50 mM Tris-HCl pH7.5 using glass beads. The protein extract was kept on ice until the assay started. The in vitro assay was carried out in a total volume of 50 μl including 50 mM Tris-HCl pH7.5, 5 mM MgCl2 and varying concentrations of CMP-Neu5Ac (0.05-30 mM) as well as of lactose or LNT (0.1-50 mM). The assay started with the addition of 35 to 750 μg protein extract. After 1 to 10 minutes of incubation at 30° C., the assay was inactivated at 95° C. for 5 minutes. Product formation was determined by mass spectrometry. Data were evaluated using the enzyme kinetic module of SigmaPlot v12.5 to calculate Km and Vmax.
Their kinetic parameters for CMP-Neu5Ac and LNT as well as lactose are depicted in Table 6.

[2] = In vivo screening in E. coli #1363/#1730 with lactose as acceptor, sialyllactose identified by TLC; assay type: cell-based, Escherichia coli BL21(DE3); settings: 1.5 mM lactose, 72 to 96 hours, qualitative via TLC
In short: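 E. coli BL21(DE3) #1363/#1730 expressing sialyltransferases were grown at 30 °C in mineral salts medium with 2% glucose and induced with 0.3 mM IPTG. After 1 h, 1.5 mM lactose was added, plus 1.5 mM sialic acid for #1730, and incubation ran 72–96 h. Cell lysates were analysed by silica TLC with thymol staining.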

Molecule | Km [1] [µM] | Vmax Lactose [1] [µmol/min] | Production of sialyllactose in-vivo [2]
SiaT19: sialyltransferase of Photobacterium leiognathi JT-SHIZ-145, acc. BAF91416, SEQ ID NO: 30 (protein, listed as Photobacterium leiognathi) MNDNQNTVDVVVSTVNDNVIENNTYQVKPIDTPTTFDSYSWIQTCGTPILKDDEKYSLSFDFVAPELDQDEKFCFEFTGDVDGKRYVTQTNLTVVAPTLEVYVDHASLPSLQQLMKIIQQKNEYSQNERFISWGRIRLTEDNAEKLNAHIYPLAGNNTSQELVDAVIDYADSKNRLNLELNTNTGHSFRNIAPILRATSSKNNILISNINLYDDGSAEYVSLYNWKDTDNKSQKLSDSFLVLKDYLNGISSEKPNGIYSIYNWHQLYHSSYYFLRKDYLTVETKLHDLREYLGGSLKQMSWDTFSQLSKGDKELFLNIVGFDQEKLQQEYQQSELPNFVFTGTTTWAGGETKEYYAQQQVNVVNNAINETSPYYLGREHDLFFKGHPRGGIINDIILGSFNNMIDIPAKVSFEVLMMTGMLPDTVGGIASSLYFSIPAEKVSFIVFTSSDTITDREDALKSPLVQVMMTLGIVKEKDVLFWC | 3000 | 0.09 | 6′-SL
SiaT9: sialyltransferase of Vibrio sp. JT-FAJ-16, acc. BAF91160, SEQ ID NO: 2 (protein, listed as Vibrio sp.) MNNDNSTTTNNNAIEIYVDRATLPTIQQMTKIVSQKTSNKKLISWSRYPITDKSLLKKINAEFFKEQFELTESLKNIILSENIDNLIIHGNTLWSIDVVDIIKEVNLLGKNIPIELHFYDDGSAEYVRIYEFSKLPESEQKYKTSLSKNNIKFSIDGTDSFKNTIENIYGFSQLYPTTYHMLRADIFDTTLKINPLRELLSNNIKQMKWDYFKDFNYKQKDIFYSLTNFNPKEIQEDFNKNSNKNFIFIGSNSATATAEEQINIISEAKKENSSIITNSISDYDLFFKGHPSATFNEQIINAHDMIEINNKIPFEALIMTGILPDAVGGMGSSVFFSIPKEVKNKFVFYKSGTDIENNSLIQVMLKLNLINRDNIKLISDI | 2900 | 0.18 | 3′-SL

Reference: patent US12692524B2, “Sialyltransferases and their use in producing sialylated oligosaccharides” (Chr. Hansen A/S, priority 2017, dated 2026)
